This test addresses synthetic horse SLN (horse). The experiment in a line: SDS-PAGE with immunoblot.

Where “and” joins values, the source holds several entries; their conditions need not be identical. Identical values can stand only once.

Data on one substance can be found in article doi:10.1101/688531.

As for synthetic horse SLN (peptide), the stoichiometry N was 2 and 3.

As a reminder, the stoichiometry N is a count of units in the complex or per binding partner.
